In experiment [1] the target is chicken α4β2 nicotinic acetylcholine receptor expressed in Xenopus oocytes (chicken) (UniProt P09482). Description: cell-based or functional assay.
The target of experiment [2] is T1, nAChR alpha 7 subunit (chick alpha 7 construct) expressed in 293T cells (chick, UniProt P22770 24-502).
T1 construct: It was in the extract of transfected 293T cells, separated by SDS-PAGE and probed by Far Western
Put plainly: Far Western blot of extracts of transfected 293T cells. An excerpt:
Far Western Analysis. A fragment of the Lynx1 cDNA corresponding to the mature polypeptide was cloned in frame to the C-terminus of the coding sequence for the secreted human placental alkaline phosphatase (referred to as Lynx/AP). The APtag-4 vector was provided by Dr. John Flanagan (Cheng, H.-J. et al (1995) Cell 82, 371-381). Constructs were transfected into 293T cells using calcium phosphate precipitation. Conditioned media was collected and treated as described (Cheng, H.-J. et al (1995) Cell 82, 371-381): 20 μg of crude extract was electrophoretically separated and transferred to PVDF membrane (Immobilon P, Millipore). Filters were renatured as specified (Rodriguez, P. L. & Carrasco, L. (1994) Biotech. 17, 702-707), incubated overnight with equal amounts of cultured supernatants containing lynx/AP or unfused AP, washed, and treated with NBT/BCIP substrate according to manufacturer's directions (Pharmacia). To determine the relative activity of Lynx/AP protein compared to unfused AP, a dilution series of cultured supernatants was blotted onto nitrocellulose paper with a slot blot apparatus and reacted for AP activity.
The cells were harvested and lysed and cell extract was run out on an SDS-PAGE gel. […]

These results are taken from US20100004162A1 (ROCKEFELLER UNIVERSITY, published 2010).

Where “and” joins values, the source holds several entries; their conditions need not be identical. Equal values may be shown once.

chicken α4β2 nicotinic acetylcholine receptor expressed in Xenopus oocytes (chicken), sequence (P09482 24-622, chain 1 of 2): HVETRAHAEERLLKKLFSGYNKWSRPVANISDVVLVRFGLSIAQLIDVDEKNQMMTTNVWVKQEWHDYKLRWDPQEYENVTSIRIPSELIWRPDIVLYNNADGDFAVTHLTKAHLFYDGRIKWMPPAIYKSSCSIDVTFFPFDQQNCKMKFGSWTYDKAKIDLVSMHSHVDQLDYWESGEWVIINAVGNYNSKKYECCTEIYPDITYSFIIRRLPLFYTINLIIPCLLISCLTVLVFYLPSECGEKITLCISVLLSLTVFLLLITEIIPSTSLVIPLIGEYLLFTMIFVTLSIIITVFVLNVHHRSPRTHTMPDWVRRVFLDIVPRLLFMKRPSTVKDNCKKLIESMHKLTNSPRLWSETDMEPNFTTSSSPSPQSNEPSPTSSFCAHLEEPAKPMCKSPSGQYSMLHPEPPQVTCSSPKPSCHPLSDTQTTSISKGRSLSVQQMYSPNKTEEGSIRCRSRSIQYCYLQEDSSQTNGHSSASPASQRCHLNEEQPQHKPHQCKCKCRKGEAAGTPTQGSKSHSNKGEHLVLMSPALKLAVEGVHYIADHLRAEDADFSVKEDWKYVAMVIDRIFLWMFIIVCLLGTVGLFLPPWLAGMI
chicken α4β2 nicotinic acetylcholine receptor expressed in Xenopus oocytes (chicken), sequence (P09484 19-491, chain 2 of 2, further chain): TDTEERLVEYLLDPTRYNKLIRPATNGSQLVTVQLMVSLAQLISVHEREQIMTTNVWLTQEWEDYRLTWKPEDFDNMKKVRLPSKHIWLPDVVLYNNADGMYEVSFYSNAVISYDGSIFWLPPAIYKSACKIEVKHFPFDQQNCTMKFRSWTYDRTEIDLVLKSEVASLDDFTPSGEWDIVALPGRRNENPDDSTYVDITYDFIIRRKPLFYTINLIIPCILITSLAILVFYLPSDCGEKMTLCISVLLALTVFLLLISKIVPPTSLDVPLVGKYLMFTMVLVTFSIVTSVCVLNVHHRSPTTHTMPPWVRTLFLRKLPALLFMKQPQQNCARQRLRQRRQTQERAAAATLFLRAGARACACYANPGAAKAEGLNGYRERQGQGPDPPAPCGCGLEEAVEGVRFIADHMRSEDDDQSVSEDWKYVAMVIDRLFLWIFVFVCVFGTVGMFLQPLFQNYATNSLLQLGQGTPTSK
T1 sequence (P22770 24-502): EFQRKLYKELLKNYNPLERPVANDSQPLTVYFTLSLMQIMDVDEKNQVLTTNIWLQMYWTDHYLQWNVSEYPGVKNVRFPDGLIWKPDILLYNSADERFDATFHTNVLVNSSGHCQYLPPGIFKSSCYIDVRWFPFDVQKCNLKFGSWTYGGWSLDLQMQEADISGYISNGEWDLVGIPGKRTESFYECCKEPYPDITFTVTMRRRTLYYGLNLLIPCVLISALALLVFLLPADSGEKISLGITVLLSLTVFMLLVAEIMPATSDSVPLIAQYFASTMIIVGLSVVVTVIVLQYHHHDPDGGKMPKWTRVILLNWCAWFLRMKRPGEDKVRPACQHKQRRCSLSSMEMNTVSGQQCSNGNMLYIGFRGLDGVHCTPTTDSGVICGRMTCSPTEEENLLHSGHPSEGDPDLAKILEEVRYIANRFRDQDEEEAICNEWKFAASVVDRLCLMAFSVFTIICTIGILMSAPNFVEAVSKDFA

For “Lynx1-HA (CMV2611), column purified Lynx1 (from UniProt P0DP60 21-92) (ligand)”, the amplitude of the ACh-evoked macroscopic currents in experiment [1] is 30% to 40% (2×) and 35%.

B1: Lynx/AP fusion protein (other)
chain: LECHVCAYNGDNCFKPMRCPAMATYCMTTRTYFTPYRMKVRKSCVPSCFETVYDGYSKHASATSCCQYYLCN
notes: It was used as conditioned medium of transfected 293T cells; also called Lynx1-alkaline phosphatase (AP) fusion; Lynx/AP supernatant; not shown: secreted human placental alkaline phosphatase from the APtag-4 vector
As to B1, in experiment [2], the binding result is recorded as “binds”.
